Measurements published in article PMC5693851.

Assays:
Conditions in all cases: glycan lost; control: wild type
[1] = non-reducing western blot of culture medium
[2] = non-reducing western blot of recipient cell lysates
[3] = non-reducing western blot of culture medium, HeLa/Hek293
[4] = conditioned medium, western blot of recipient cell lysates
[5] = immunofluorescence, endo/lysosomal (LAMP-1) vs Golgin-97 colocalisation
[6] = fluorogenic substrate assays, lysates of transfected or conditioned HeLa

Row | Protein | oligomerisation [1] | other: proteolytic processing (dimer to monomer conversion) [2] | expression_or_secretion [3] | other: uptake by recipient cells [4] | localisation_or_trafficking [5] | other: inhibition of intracellular peptidases [6]
1 | cystatin F: N6162SN115Q (protein) parent chain: MRAAGTLLAFCCLVLSTTGGPSPDTCSQDLNSRVKPGFPKTIKTNDPGVLQAARYSVEKFNNCTNDMFLFKESRITRALVQIVKGLKYMLEVEIGRTTCKKNQHLRLDDCDFQTNHTLKQTLSCYSEVWVVPWLQHFEVPVLRCH | no change | abolishes | no change | decreases | decreases | abolishes
2 | cystatin F: N6162S (protein) parent chain: MRAAGTLLAFCCLVLSTTGGPSPDTCSQDLNSRVKPGFPKTIKTNDPGVLQAARYSVEKFNNCTNDMFLFKESRITRALVQIVKGLKYMLEVEIGRTTCKKNQHLRLDDCDFQTNHTLKQTLSCYSEVWVVPWLQHFEVPVLRCH | no change | decreases | no change | decreases | decreases | decreases
